Results reported in patent publication US20200157212A1 (Pfizer, published 2020).

T1: Cynomolgus monkey ROBO2 overexpressed on HEK293 cells (cynomolgus monkey, UniProt Q9HCK4 22-1378 (human entry))
T1 chain: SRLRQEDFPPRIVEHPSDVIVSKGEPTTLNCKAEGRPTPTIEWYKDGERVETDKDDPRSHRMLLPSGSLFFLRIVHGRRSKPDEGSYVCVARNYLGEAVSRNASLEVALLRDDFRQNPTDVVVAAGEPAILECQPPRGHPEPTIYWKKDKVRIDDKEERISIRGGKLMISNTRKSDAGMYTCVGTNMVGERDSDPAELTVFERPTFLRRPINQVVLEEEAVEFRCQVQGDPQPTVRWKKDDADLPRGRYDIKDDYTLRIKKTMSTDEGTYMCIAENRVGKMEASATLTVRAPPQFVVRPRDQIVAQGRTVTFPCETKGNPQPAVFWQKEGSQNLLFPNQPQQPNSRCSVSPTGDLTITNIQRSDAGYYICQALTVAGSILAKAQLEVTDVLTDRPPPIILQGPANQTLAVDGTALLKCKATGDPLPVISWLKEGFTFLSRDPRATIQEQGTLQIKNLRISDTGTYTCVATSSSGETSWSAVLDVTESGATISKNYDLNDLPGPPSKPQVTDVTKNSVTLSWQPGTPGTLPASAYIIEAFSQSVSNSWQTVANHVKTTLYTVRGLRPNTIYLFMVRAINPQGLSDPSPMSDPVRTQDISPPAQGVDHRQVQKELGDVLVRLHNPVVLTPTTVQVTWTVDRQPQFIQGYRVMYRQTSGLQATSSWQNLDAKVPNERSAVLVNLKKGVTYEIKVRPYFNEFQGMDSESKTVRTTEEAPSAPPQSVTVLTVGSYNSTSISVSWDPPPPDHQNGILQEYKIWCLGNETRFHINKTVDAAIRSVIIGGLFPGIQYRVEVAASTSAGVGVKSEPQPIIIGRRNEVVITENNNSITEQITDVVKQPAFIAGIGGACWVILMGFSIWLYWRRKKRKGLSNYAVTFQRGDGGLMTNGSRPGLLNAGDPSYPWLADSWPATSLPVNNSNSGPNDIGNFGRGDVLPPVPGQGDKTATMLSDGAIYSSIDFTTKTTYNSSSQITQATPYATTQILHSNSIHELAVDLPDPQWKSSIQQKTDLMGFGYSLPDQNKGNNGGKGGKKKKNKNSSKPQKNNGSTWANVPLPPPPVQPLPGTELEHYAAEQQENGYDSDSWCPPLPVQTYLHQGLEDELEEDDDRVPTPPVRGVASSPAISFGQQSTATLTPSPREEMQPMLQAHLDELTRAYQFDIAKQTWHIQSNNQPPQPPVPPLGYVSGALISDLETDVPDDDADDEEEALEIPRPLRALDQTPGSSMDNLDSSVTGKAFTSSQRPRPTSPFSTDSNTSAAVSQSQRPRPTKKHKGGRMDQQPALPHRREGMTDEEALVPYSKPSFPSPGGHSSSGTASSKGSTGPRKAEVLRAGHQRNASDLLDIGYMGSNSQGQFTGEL


Molecular target: T1, Cynomolgus monkey ROBO2 overexpressed …
Assay: flow cytometry, HEK293 cells, average of n = 3
Procedure: Binding of the antibodies was detected using a secondary fluorochrome conjugated anti-human IgG F(ab′)₂ antibody and samples were analyzed on a Fortessa cytometer (BD Biosciences). The fold ROBO2 selectivity was calculated as the geometric mean fluorescence intensity (Geo MFI) with ROBO2 cells/Geo MFI with ROBO1 cells. A fold change higher than 3 was considered to be ROBO2 specific (Table 2, Fold Selectivity). Some affinity matured clones had increased ROBO1 reactivity, for example Abcs 55, CTI-R2-10 and CTIR2-13.
Based upon several criteria, Abcs25 and Abcs35 were selected for further characterization. Using flow cytometry, improvement in the binding EC₅₀ to human ROBO2 relative to the parental 93H2 was evaluated. Starting at 6.7 nM, 11-point, 3-fold dilution series were made for each antibody and used to stain HEK293 overexpressing human ROBO2 as described above for the ROBO2 fold selectivity (Example 2). […] In addition to measuring improved binding to human ROBO2, it was important to ensure that high affinity binding to both cynomolgus monkey ROBO2 and rat ROBO2 was maintained. Using HEK293 cells overexpressing either cynomolgus monkey ROBO2 or rat ROBO2, the relative dose-dependent binding of 93H2, Abcs25 and Abcs35 was evaluated as described above. High affinity binding to both cynomolgus monkey and rat ROBO2 was maintained in Abcs25 and Abcs35 (Table 4). […] Briefly, Abcs35 was immobilized to 300 resonance units (RU) on a CM5 chip. Association of ROBO2 Ig1-Ig2-His (ROBO2) was measured over 5 minutes and dissociation was followed for a period of 10 minutes.

Row | EC50 [nM] | Binder
1 | 0.316 | 93H2 (antibody, human IgG1, kappa, V domains shown, also called parental 93H2; 93H2 mAb) VH: EVQLVQSGAEVKKPGASVKVSCKASGYTFTGYYMHWVRQAPGQGLEWMGWINPNSGATNFPQKFQGRVTMTRDTSITTAYMDLSRLRSDDTAVYYCARESGDDAFDIWGQGTMVTVSS VL: not shown
2 | 0.128 | Abcs25 (antibody, human IgG1, kappa, V domains shown, chain-shuffled IgG) VH: EVQLVQSGAEVKKPGASVKVSCKASGYTFTGYYMHWVRQAPGQGLEWMGWINPKDGDTEFPQKFQGRVTMTRDTSITTAYMDLSRLRSDDTAVYYCARESGDDAFDIWGQGTMVTVSS VL: DIVMTQSPSSLSASVGDRVTITCRASQSISSYLNWYQQKPGKAPKLLIYAASSLQSGVPSRFSGSGSGTDFTLTISSLQPEDFATYYCQQSVGLSFGGGTKVEIKR

Row | Binder | EC50 [nM]
3 | Abcs35 (antibody, human IgG1, kappa, fully human IgG1; VH of Ab96 with VL of Ab123) heavy: EVQLVQSGAEVKKPGASVKVSCKASGYTFTGYYMHWVRQAPGQGLEWMGWINPKNGDTEFPQKFQGRVTMTRDTSITTAYMDLSRLRSDDTAVYYCARESGDDAFDIWGQGTMVTVSSASTKGPSVFPLAPSSKSTSGGTAALGCLVKDYFPEPVTVSWNSGALTSGVHTFPAVLQSSGLYSLSSVVTVPSSSLGTQTYICNVNHKPSNTKVDKKVEPKSCDKTHTCPPCPAPEAAGAPSVFLFPPKPKDTLMISRTPEVTCVVVDVSHEDPEVKFNWYVDGVEVHNAKTKPREEQYNSTYRVVSVLTVLHQDWLNGKEYKCKVSNKALPAPIEKTISKAKGQPREPQVYTLPPSREEMTKNQVSLTCLVKGFYPSDIAVEWESNGQPENNYKTTPPVLDSDGSFFLYSKLTVDKSRWQQGNVFSCSVMHEALHNHYTQKSLSLSPGK light: DIVMTQSPSSLSASVGDRVTITCRASQSISSYLNWYQQKPGKAPKLLIYAASSLQSGVPSRFSGSGSGTDFTLTISSLQPEDFATYYCQQSVGLFFGGGTKVEIKRTVAAPSVFIFPPSDEQLKSGTASVVCLLNNFYPREAKVQWKVDNALQSGNSQESVTEQDSKDSTYSLSSTLTLSKADYEKHKVYACEVTHQGLSSPVTKSFNRGEC | 0.145
